Patent publication US9611303B2, “Modified biotin-binding protein” (Japan Tobacco Inc., priority 2009, dated 2017)
Changes are numbered by the printed parent chain. In names and notes the source's numbering stands.

B1: TM2 S36A-D116A: TM2 with 36th serine and 116th aspartic acid replaced with alanine; SEQ ID NO: 20 (protein)
chain: MSDVQSSLTGTWYNELNSKMELTANKDGTLTGKYLAKVGDVYVPYPLSGRYNLQPPAGQGVALGWAVSWENSKIHSATTWSGQFFSESSPVILTQWLLSSSTARGDVWESTLVGNASFTKTAPTEQQIAHAQLHCRAPRLK
modifications: Synthetic TM2 S36A-D116A
B2: TM2 W80K: TM2 in which the 80th tryptophan was replaced with lysine; amino acid sequence SEQ ID NO: 4 (protein)
chain: B1 chain with A36S, W80K, A116D
modifications: Synthetic TM2 W80K
B3: TM2 D116A: TM2 in which the 116th aspartic acid was replaced with alanine; SEQ ID NO: 12 (protein)
chain: B1 chain with A36S
modifications: Synthetic TM2 D116A
B4: TM2P46T-D116A: TM2 with 46th proline replaced with threonine and 116th aspartic acid with alanine; SEQ ID NO: 16 (protein)
chain: B1 chain with A36S, P46T
modifications: Synthetic TM2 P46T-D116A
B5: TM2P46T-T78A: TM2 with 46th proline replaced with threonine and 78th threonine with alanine; SEQ ID NO: 14 (protein)
chain: B1 chain with A36S, P46T, T78A, A116D
modifications: Synthetic TM2 P46T-T78A
B6: TM2 S36A: TM2 in which the 36th serine was replaced with alanine; SEQ ID NO: 6 (protein)
chain: B1 chain with A116D
modifications: Synthetic TM2 S36A
B7: TM2P46T-T78A-D116A: TM2 with P46T, T78A and D116A replacements; SEQ ID NO: 18 (protein)
chain: B1 chain with A36S, P46T, T78A
modifications: Synthetic TM2 P46T-T78A-D116A
B8: TM2 T78A-D116A: TM2 with 78th threonine and 116th aspartic acid replaced with alanine; SEQ ID NO: 22 (protein)
chain: B1 chain with A36S, T78A
modifications: Synthetic TM2 T78A-D116A

Experiments:
[1] = Purification of LATM2 with 2-iminobiotin-agarose; format: binding; conditions: for Recovery rate (%): Iminobiotin-agarose, binding at pH 12, elution with 50 mM NH4OAC (pH 4)
Procedure: LATM2 was purified through a column charged with 2-iminobiotin-agarose (manufactured by Sigma-Aldrich Corp.) in accordance with the method by Hofmann, et al., (1980). IPTG was added to 25 mL of a culture solution of E. coli transformed with each LATM2 in a final concentration of 1 mM to induce expression. The E. coli cells were collected by centrifugation, suspended in 1.5 mL of 50 mM CAPS (pH 12) containing 50 mM NaCl, and then sonicated. To the supernatant of the disrupted cells, 500 μL of 2-iminobiotin-agarose was added, which was then packed in a column. The column was sufficiently washed with 50 mM CAPS (pH 12) containing 500 mM NaCl, and elution was then performed with 50 mM NH4OAC (pH 4).
(§1) The recovery rate in Table 2 was calculated by dividing the amount of LATM2 protein after purification by the amount of LATM2 protein before purification and was expressed by percent by multiplying the quotient by 100. The degree of purification was the ratio of the amount of LATM2 protein to the total amount of proteins in the purified fraction and was expressed by percent by multiplying the ratio by 100. The recovery rates and the degrees of purification in biotin-agarose were the results after binding at pH 7 and elution with an excess amount of biotin.

[2] = Purification of LATM2 with biotin-agarose; format: binding
Procedure: Purification with biotin-agarose (manufactured by Sigma-Aldrich Corp.) was performed by the following procedure. After induced expression of 25 mL of a culture solution of E. coli for each LATM2, the E. coli cells were suspended in 1.5 mL of a 100 mM potassium phosphate buffer (pH 7.0), and then sonicated. To the supernatant of the disrupted cells. 400 μL of biotin-agarose was added, which was followed by upside-down mixing for 1 hr. […]
In TM2 S36A-T78A-D116A, the E. coli cells were suspended in 1.5 mL of 50 mM CAPS (pH 12) containing 50 mM NaCl, and then sonicated. To the disrupted cells, 400 μL of biotin-agarose was added, which was followed by upside-down mixing for 1 hr. The column was sufficiently washed with 50 mM CAPS (pH 12) containing 500 mM NaCl, and elution was then performed with 1 mL of PBS (pH 7.4) containing 10 mM biotin.
In TM2 S36A-D116A, the E. coli cells were suspended in 1.5 mL of a 100 mM potassium phosphate buffer (pH 4.0), and then sonicated. To the pupernatant of the disrupted cells, 400 μL of biotin-agarose was added. Washing was performed with a 100 mM potassium phosphate buffer (pH 4) containing 500 mM NaCl, and elution was performed with 1 mL of PBS (pH 7) containing 10 mM biotin. Biotin binding to LATM2 that has been eluted with an excess amount of biotin was removed by dialysis with a 20 mM potassium phosphate buffer overnight.
as §1

[3] = pH-dependence of binding to biotin-agarose
Procedure: E. coli cells were collected from 25 mL of an E. coli culture solution in which expression TM2 S36A-D116A was induced with 1 mM IPTG, were suspended in 1.5 mL of a 100 mM potassium phosphate buffer ([…]) or 1.5 mL of a 50 mM CAPS (pH 12.0), and then were sonicated. The disrupted cells were centrifugated, and 400 μL of biotin-agarose was added to the supernatant. […] Furthermore, the TM2 S36A-D116A protein was dissociated from the carrier by increasing the pH of the reaction solution to 7.0 or 12.0 and was recovered at an efficiency of 95%.
TM2 S36A-T78A-D116A was also investigated for its pH-dependence. The protein was suspended in a buffer of pH 4.0 or pH 12.0 and was sonicated. […] By utilizing this property, high purity TM2 S36A-T78A-D116A was obtained by binding the protein to biotin-agarose at pH 4.0 and eluting it at pH 7.0 (FIG. 3B).

[4] = Subunit association by FPLC on Sephacryl S-100HR; format: physicochemical; conditions: for Structure (identified by FPLC): Sephacryl S-100HR, 50 mM potassium phosphate, 500 mM NaCl; for Sephacryl (mL), elution peak position: tetramer 44 to 47 mL, dimer 51 to 54 mL, monomer 63 to 66 mL
Procedure: In order to analyze the subunit association conditions of LATM2, the molecular weight of each LATM2s was measured by FPLC. Sephacryl S-100HR (manufactured by GE Healthcare) was used as a column, a Gel Filtration Calibration Kit LMW (manufactured by GE Healthcare) was used as molecular weight markers, and 50 mM potassium phosphate containing 500 mM NaCl was used as a buffer.
The positions of the peaks of eluted tetramer were defined to be 44 to 47 mL after injection of WT-TM2 as a control. The peak of an eluted monomer appeared at around 63 to 66 mL and the peak of an eluted dimer appeared at around 51 to 54 mL, from result of loading the molecular weight markers.

[5] = tested on: Proteinase K; assay: Protease resistance of LATM2 (SDS-PAGE); conditions: 5 μM Proteinase K, 30° C., 15 min, presence or absence of biotin
Procedure: Throughout the specification, “having protease resistance” refers to that a protein is not enzymatically decomposed or not substantially decomposed by protease treatment. The protease treatment is performed by, for example, proteinase K treatment at 30° C. for 15 min. The term “not enzymatically decomposed” refers to that bands of a tetramer, dimer, and/or monomer of the protein can be clearly detected by SDS-PAGE after enzyme treatment, as in wild-type TM2. That is, a protein not having protease resistance is decomposed into small molecules by protease treatment, and bands of the tetramer, dimer, and monomer are not detected by SDS-PAGE after the protease treatment. […] Accordingly, bands of the tetramer and/or the dimer or monomer generated by dissociation of the tetramer are detected by SDS-PAGE. […] of each of the LATM2s (TM2 S36A, TM2 […], TM2 […], TM2 […], TM2 […], TM2 S36A-[…], TM2 […], and […]) purified by biotin-agarose was subjected to a reaction in 50 mM Tris-HCl (pH 8.0) containing 5 μM Proteinase K and 5 mM CaCl2 at 30° C. for 15 min. […] Then, an SDS buffer was added to each reaction solution, followed by heat treatment at 95° C. for 10 min to terminate the reaction. The resulting sample was subjected to SDS-PAGE, followed by CBB staining.

[6] = Biotin-agarose, binding at pH 7, recovery with 10 mM biotin

| binding to 2-iminobiotin-agarose [1] | recovery rate by binding at pH 4, elution at pH 7 (without biotin) ([2]; Biotin-agarose) [%] | recovery rate by binding at pH 4, elution at pH 7 (without biotin) ([2]; Biotin-agarose, listed as S36AD116A) | binding to biotin-agarose ([3]; extract at pH 4.0, pH 5.0, or pH 6.0) | binding to biotin-agarose ([3]; extract at pH 7.0 or pH 12.0) | recovery efficiency on dissociation from the carrier ([3]; increasing the pH to 7.0 or 12.0) [%] | recovery rate by binding at pH 12, extraction with acetic acid ([2]; Biotin-agarose) | binding to biotin-agarose [2] | Molecule | Recovery rate (%) [1] [%] | Recover rate (%) [2, 6] [%] | Structure (identified by FPLC) [4] | Sephacryl (mL), elution peak position [4] [mL] | decomposition by Proteinase K [5] | recover rate by elution with acetic acid ([2]; Biotin-agarose, elution with acetic acid) | Structure (identified by FPLC) ([4]; listed as D116A) | Note (Biotin-agarose) ([2]; binding at pH 7, recovery with 10 mM biotin, FT = flow-through) | elution from biotin-agarose with an excess amount of biotin [2] | Structure (identified by FPLC) ([4]; listed as S36A) | Note (Iminobiotin-agarose) ([1]; FT = column flow-through fraction) |
| --- | --- | --- | --- | --- | --- | --- | --- | --- | --- | --- | --- | --- | --- | --- | --- | --- | --- | --- | --- |
| did not bind | 95 | recovery rate: 95% | efficiently bound to biotin-agarose | did not bind to biotin-agarose at all | 95 |  |  | B1 | 0 | 0 | Tetramer | 46.31 | approximate a half thereof was decomposed |  |  |  |  |  |  |
|  |  |  |  |  |  |  |  | B2 | 95 | 50 | Tetramer | 44.4 | hardly decomposed | recover rate: 95% |  |  |  |  |  |
|  |  |  |  |  |  |  |  | B3 | 95 | 95 | tetramer | 46.22 | hardly decomposed |  | Tetramer |  |  |  |  |
|  |  |  |  |  |  |  |  | B4 | 95 | 95 | Tetramer | 46.23 | hardly decomposed |  |  |  |  |  |  |
|  |  |  |  |  |  | recovery rate: 70% |  | B5 | 95 | 5 | Tetramer | 46.05 | hardly decomposed |  |  | note eluted |  |  |  |
|  |  |  |  |  |  |  | efficiently adsorbs to biotin-agarose | B6 | 95 | 95 | tetramer | 46.17 | hardly decomposed |  |  |  | eluted by addition of an excess amount of biotin | Tetramer |  |
|  |  |  |  |  |  |  |  | B7 | 95 | 95 | Tetramer | 48.24 | hardly decomposed |  |  |  |  |  |  |
| did not bind |  |  |  |  |  |  |  | B8 | 0 | 95 | Tetramer | 46.37 | hardly decomposed |  |  |  |  |  | To FT |
